In assay [1] the target is T1, 4H796-bA.
T1 chain: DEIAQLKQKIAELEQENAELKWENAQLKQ
The assay can be described thus: two-hybrid library CCNG1.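 Note: natural log of median RNA to DNA barcode read ratio; higher means stronger binding.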

The target of assay [2] is T2, 4H730-bA.
T2 chain: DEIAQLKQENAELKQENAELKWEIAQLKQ
The assay can be described thus: two-hybrid library CCNG1.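 Note: natural log of median RNA to DNA barcode read ratio; higher means stronger binding.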

The target in assay [3] is T3, 4H949-bA.
T3 chain: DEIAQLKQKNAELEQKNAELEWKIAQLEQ
Description: two-hybrid library CCNG1.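 Note: natural log of median RNA to DNA barcode read ratio; higher means stronger binding.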

Assay [4] has as its target T4, 4H932-bA.
T4 chain: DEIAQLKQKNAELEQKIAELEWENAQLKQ
The assay can be described thus: two-hybrid library CCNG1.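 Note: natural log of median RNA to DNA barcode read ratio; higher means stronger binding.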

Assay [5] concerns the target T5, 4H3073-AA.
T5 chain: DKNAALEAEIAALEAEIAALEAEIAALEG
The assay can be described thus: two-hybrid library CCmax.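 Note: natural log of median RNA to DNA barcode read ratio; higher means stronger binding.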

Assay [6] addresses 4H_GCN4. Description: two-hybrid library CCmax.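 Note: natural log of median RNA to DNA barcode read ratio; higher means stronger binding.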 The note with it: mean of both orientations.
Assay [7] deals with T6, 4H_APH.
T6 chain: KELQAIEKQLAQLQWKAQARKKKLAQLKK
The assay can be described thus: two-hybrid library CCmax. The note with it: mean of both orientations.

Assay [8] has as its target T7, 4H3438-AA.
T7 chain: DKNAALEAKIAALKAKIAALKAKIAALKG
The assay can be described thus: two-hybrid library CCmax. The note with it: mean of both orientations.

For assay [9], the target named is GCN2_T. Description: two-hybrid library CCmax.
Assay [10] has as its target T8, 4H452-AA.
T8 chain: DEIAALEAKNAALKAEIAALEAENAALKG
The assay can be described thus: two-hybrid library CCmax. The note with it: mean of both orientations.

Assay [11] has as its target T9, 4H347-AA.
T9 chain: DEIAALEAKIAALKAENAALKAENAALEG
Description: two-hybrid library CCmax. The note with it: mean of both orientations.

In assay [12] the target is T10, 4H_BCR.
T10 chain: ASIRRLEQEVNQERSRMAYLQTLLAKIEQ
The assay can be described thus: two-hybrid library CCmax. The note with it: mean of both orientations.

The target in assay [13] is T11, 4H56-AA.
T11 chain: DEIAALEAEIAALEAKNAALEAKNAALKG
Description: two-hybrid library CCmax. The following applies: mean of both orientations.

The target in assay [14] is T12, 4H406-AA.
T12 chain: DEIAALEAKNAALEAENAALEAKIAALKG
The assay can be described thus: two-hybrid library CCmax. The following applies: mean of both orientations.

The target in assay [15] is T13, 4H908-bH.
T13 chain: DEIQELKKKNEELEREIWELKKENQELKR
Description: two-hybrid library CCNG1.

For assay [16], the target named is T14, 4H797-bH.
T14 chain: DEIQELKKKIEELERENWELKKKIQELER
Description: two-hybrid library CCNG1.

The target of assay [17] is T15, 4H754-bH.
T15 chain: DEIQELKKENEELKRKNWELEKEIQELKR
The assay can be described thus: two-hybrid library CCNG1.

The target in assay [18] is T16, 4H968-bH.
T16 chain: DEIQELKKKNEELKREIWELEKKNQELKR
The assay can be described thus: two-hybrid library CCNG1.

The target in assay [19] is T17, 4H953-bH.
T17 chain: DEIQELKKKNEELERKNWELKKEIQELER
The assay can be described thus: two-hybrid library CCNG1.

Assay [20] deals with T18, 4H855-bH.
T18 chain: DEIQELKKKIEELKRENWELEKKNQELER
Description: two-hybrid library CCNG1.

Assay [21] concerns the target T19, 4H967-bH.
T19 chain: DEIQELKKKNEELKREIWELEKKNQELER
The assay can be described thus: two-hybrid library CCNG1.

Assay [22] deals with T20, 4H883-bH.
T20 chain: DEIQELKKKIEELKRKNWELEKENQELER
The assay can be described thus: two-hybrid library CCNG1.

Assay [23] deals with T21, 4H780-bH.
T21 chain: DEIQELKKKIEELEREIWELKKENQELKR
Description: two-hybrid library CCNG1.

Assay [24] has as its target T22, 4H918-bH.
T22 chain: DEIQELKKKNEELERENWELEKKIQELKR
The assay can be described thus: two-hybrid library CCNG1.

In assay [25] the target is T23, 4H855-bA.
T23 chain: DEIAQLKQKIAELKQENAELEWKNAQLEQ
Description: two-hybrid library CCNG1.

Assay [26] deals with T24, 4H918-bA.
T24 chain: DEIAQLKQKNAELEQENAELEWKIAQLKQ
Description: two-hybrid library CCNG1.

Assay [27] deals with T25, 4H968-bA.
T25 chain: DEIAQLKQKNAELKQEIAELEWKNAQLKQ
Description: two-hybrid library CCNG1.

The target in assay [28] is T26, 4H780-bA.
T26 chain: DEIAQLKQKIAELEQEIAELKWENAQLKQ
Description: two-hybrid library CCNG1.

The target in assay [29] is T27, 4H797-bA.
T27 chain: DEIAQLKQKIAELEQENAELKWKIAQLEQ
The assay can be described thus: two-hybrid library CCNG1.

The target in assay [30] is T28, 4H953-bA.
T28 chain: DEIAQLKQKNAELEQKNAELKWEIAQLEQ
Description: two-hybrid library CCNG1.

Sequence of 4H_GCN4 (chain, as listed by the source): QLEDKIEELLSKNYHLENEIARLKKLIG

On to DEIAQLKQENAELKQENAELKWEIAQLKQ [4H730-bA], for which the interaction score in assay [1] was -0.666; in assay [2], 1.25; in [3] it was -0.437; in [4], -0.52.

Take DKNAALEAEIAALEAEIAALEAEIAALEG [4H3073-AA]: the interaction score was -0.701 in assay [5]; -0.626 in assay [6]; 0.197 in [7]; 1.51 in [8]; -1.05 in [9]; -1.22 in assay [10]. In addition, the interaction score is -1.33 in [11], -1.37 in assay [12], -1.28 in assay [13] and -1.6 in assay [14].

On to DEIQELKKENEELKRKNWELEKEIQELKR [4H754-bH], for which the interaction score in assay [15] is 0.329; in [16], -0.0415; in assay [17], 1.36; in assay [18], -0.182; in assay [19], 0.539; in assay [20], -0.362. The interaction score in assay [21] is -0.713; in assay [22], -0.29; in [23], -0.00466; in assay [24], 0.604.

As to DEIAQLKQKIAELEQEIAELKWENAQLKQ [4H780-bA], the interaction score in [25] is -0.574; in assay [26] it was -0.303; in assay [27], -1.3; in [28], 1.22; in [29], -0.749; in assay [30], -0.243.
